Laboratory results from paper PMC2952653 (Journal of molecular biology, 2010).

Tests used:
[1] = target: MEF2A (2-95), MADS-box/MEF2 domain (Homo sapiens, UniProt Q02078 2-95); test: X-ray crystallography
[2] = target: the molecule itself; test: multiangle light scattering

Binder | binding result [1] | stoichiometry N [2]
MEF2 site 14mer (crystal) (dsDNA) DNA 1: AACTATTTATAAGA DNA 2: TTCTTATAAATAGT | binds | –
MADS-box/MEF2 domain of human MEF2A (residues 2-95) (domain or fragment, UniProt Q02078 2-95, looked up) GRKKIQITRIMDERNRQVTFTKRKFGLMKKAYELSVLCDCEIALIIFNSSNKLFQYASTDMDKVLLKYTEYNEPHESRTNSDIVEALNKKEHRG | – | 2
